The text below walks through data of patent US20250295799A1, “ANTIBODY-DRUG CONJUGATES TARGETING GLYPICAN-3 AND METHODS OF USE” (Zymeworks BC Inc., priority 2022, published 2025).

The target of test [1] is human glypican-3 (GPC3) (human) (UniProt P51654). Nature of the test: cell-based or functional assay.
Test [2] shares this target. The experiment in a line: flow cytometry on JHH-5 cells (GPC3-mid).
Test [3] has the same target. The experiment in a line: flow cytometry on JHH-7 cells (GPC3-high).
For test [4] the target is unchanged. Nature of the test: flow cytometry on CHO-S cells transfected with human GPC3.
The target of test [5] is cynomolgus monkey glypican-3 (GPC3) (cynomolgus monkey). The experiment in a line: flow cytometry on CHO-S cells transfected with cynomolgus GPC3.
Test [6] has as its target human glypican-3 (GPC3) (human) (UniProt P51654). Nature of the test: flow cytometry on JHH-7 cells; v21995 in PBS (not incubated in plasma), day 0.
Test [7] concerns the target human GPC3 on cells (human) (UniProt P51654). Nature of the test: flow cytometry, JHH-7 cells; negative control.

Where only a bound is given, the exact number is not on record here.

palivizumab (anti-RSV antibody), v21995 gave a JHH-5 Internalization (MFI) in test [1] of 399 MFI. Besides, the JHH-5 Internalization (MFI), Day 0 (in PBS) in test [1] was 506 MFI. The same substance had a JHH-7 Internalization (MFI) in test [1] of 265 MFI. For the same substance, the JHH-7 Internalization (MFI), Day 0 (in PBS) in test [1] was 4 MFI. Moreover, the Kd is > 150 nM in test [2]; > 47 nM in test [3]; > 150 nM in test [4]; > 150 nM in test [5]; 37.7 nM in test [6]. Further, in test [6], the Bmax (MFI) worked out at 309 MFI.

As for v22277 (palivizumab) (antibody), the Kd in test [7] is > 60 nM.
